From paper PMC4021855 (Nature chemical biology, 2013)
Ends that are not written are not given here.

Columns and labels:
[1] = molecular target: human full-length KRS WT, His-tagged (human, UniProt Q15046 1-597); experiment: AlphaScreen or HTRF
[2] = molecular target: human full-length KRS T52D, His-tagged (human, UniProt Q15046 1-597, T52D); experiment: AlphaScreen or HTRF
Sequence of human full-length KRS T52D, His-tagged (Q15046 whole entry T52D): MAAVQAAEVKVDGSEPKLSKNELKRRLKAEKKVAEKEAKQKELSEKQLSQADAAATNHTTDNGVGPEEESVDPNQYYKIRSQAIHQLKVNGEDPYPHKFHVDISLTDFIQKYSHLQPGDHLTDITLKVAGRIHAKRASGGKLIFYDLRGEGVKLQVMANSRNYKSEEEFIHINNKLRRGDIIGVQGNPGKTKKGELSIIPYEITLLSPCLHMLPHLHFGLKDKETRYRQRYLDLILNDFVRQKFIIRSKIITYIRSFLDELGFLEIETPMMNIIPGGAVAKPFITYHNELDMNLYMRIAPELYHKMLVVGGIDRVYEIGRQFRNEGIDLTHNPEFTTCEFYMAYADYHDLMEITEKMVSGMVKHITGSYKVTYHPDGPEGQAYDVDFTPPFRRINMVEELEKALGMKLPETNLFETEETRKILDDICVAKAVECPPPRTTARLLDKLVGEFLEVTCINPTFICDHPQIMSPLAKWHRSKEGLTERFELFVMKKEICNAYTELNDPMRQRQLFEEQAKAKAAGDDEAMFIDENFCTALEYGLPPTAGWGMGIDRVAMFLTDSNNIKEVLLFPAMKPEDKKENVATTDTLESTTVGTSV

Sequence of human full-length KRS WT, His-tagged (Q15046 whole entry): as the sequence (Q15046 whole entry T52D) above, with D52T counted along it

For MPMYQVKPYHGGGAPLRVELPTCMYRLPNVHGRSYGPAPGAGHVQEES-{TRX} (domain or fragment, human, UniProt Q13155 1-48, looked up, also: biotin via EZ-Link-NHS-PEG12-Biotin, places not given here) [AIMP2_(1–48)-TRX-Biotin], the binding result [1] was “binds” and the Kd [2] was 333 nM.
